Results as given in the supplement of paper PMC12042874.
± gives the uncertainty stated by the source.

Assay: amyloid nucleation score (Sup35N fusion, yeast selection) (log enrichment); library NNK3; higher = more nucleation; inactive = no reads after selection
How it was run: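 DiMSum was used to calculate nucleation scores as log enrichment of output over input reads, centred on the mode score of non-aggregating sequences. Sequences with fewer than 100 input reads were not scored. Input and output came from Illumina sequencing of plasmid inserts in psi-negative yeast expressing peptides of 20 random codons fused to Sup35N, induced 24 hours with 100 μM copper sulfate and then grown 7 days at 30°C on medium lacking adenine and uracil.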

Substance: GLLSR
- amyloid nucleation score: inactive

Substance: GLLVTTPMLKLNYFNVLDLG
- amyloid nucleation score: 0.99 ± 0.1

Substance: GLMALNVMSVNTTEYCRAYW
- amyloid nucleation score: 0.56 ± 0.12

Substance: GLMLDFILYQWTWYKLSMDT
- amyloid nucleation score: inactive

Substance: GLNDHSLI
- amyloid nucleation score: inactive

Substance: GLRDMGDKYVYMVSGGCIYG
- amyloid nucleation score: 2.19 ± 0.069

Substance: GLRNYRDGVKIASAVSVGAS
- amyloid nucleation score: inactive

Substance: GLVCWTG
- amyloid nucleation score: inactive

Substance: GMAETRWGLRKIWKVAGARI
- amyloid nucleation score: -0.85 ± 1.9

Substance: GMALPRVIVFIGNRITTNLG
- amyloid nucleation score: 2.31 ± 0.065

Substance: GMERFNGFKRVFMDSGCLHR
- amyloid nucleation score: -0.707 ± 0.96

Substance: GMHCFIEPLSRVFGSNCGNY
- amyloid nucleation score: inactive

Substance: GMPKSWYMPVRMMQASSSAF
- amyloid nucleation score: inactive

Substance: GMSICVPSKS
- amyloid nucleation score: 0.179 ± 0.34

Substance: GMSLECNFIYL
- amyloid nucleation score: 1.84 ± 0.1

Substance: GNEWRWWVLRNLLSCFSIP
- amyloid nucleation score: inactive

Substance: GNHQSRYSFVP
- amyloid nucleation score: inactive

Substance: GNKMVLVW
- amyloid nucleation score: inactive

Substance: GNMCDRTYLRMMLFHCRMPS
- amyloid nucleation score: inactive

Substance: GNSNTMSVLRCFLNPFPLVW
- amyloid nucleation score: inactive

Substance: GNVMSRRDTLWIVIYVRFRH
- amyloid nucleation score: inactive

Substance: GNYVTVHIYVKAVFGNG
- amyloid nucleation score: inactive

Substance: GPEHQSVPRAFHQLRYLIYN
- amyloid nucleation score: inactive

Substance: GPFARNS
- amyloid nucleation score: inactive

Substance: GPFQLA
- amyloid nucleation score: inactive

Substance: GPHIVRYERTFNG
- amyloid nucleation score: inactive

Substance: GPHRILIAVESMTYFEGEVW
- amyloid nucleation score: inactive

Substance: GPIYWLLKGQNFESRVDTNL
- amyloid nucleation score: inactive

Substance: GPNRYW
- amyloid nucleation score: inactive

Substance: GPSLYINLMRVGCRRGHLFL
- amyloid nucleation score: 1.46 ± 0.12

Substance: GPVSYHMRCLYTGLSIPHLF
- amyloid nucleation score: inactive

Substance: GRAPYMWC
- amyloid nucleation score: -0.955 ± 2.4

Substance: GRARMFGLGRVFKVCMKLRA
- amyloid nucleation score: -0.543 ± 0.54

Substance: GRDMMWAVCDFEAKLELETG
- amyloid nucleation score: inactive

Substance: GRGIYGIIARASAPVRRSLV
- amyloid nucleation score: inactive

Substance: GRPHEPGKFIRNSSIGSGS
- amyloid nucleation score: -0.479 ± 1.1

Substance: GRRRIRNCVSRACLMYIQHV
- amyloid nucleation score: 0.434 ± 0.23

Substance: GRSLVYR
- amyloid nucleation score: inactive

Substance: GRSSRCWGGMCRGGNLCEEF
- amyloid nucleation score: inactive

Substance: GRVFRCTPEVFIK
- amyloid nucleation score: inactive

Substance: GRWGGDYFCVGNFMG
- amyloid nucleation score: inactive

Substance: GRYVCRL
- amyloid nucleation score: -0.459 ± 0.9

Substance: GSEMVAGHS
- amyloid nucleation score: inactive

Substance: GSFGYNCVKFHSDGFQAGRG
- amyloid nucleation score: inactive

Substance: GSFYCLYFVGDVIIILTCLR
- amyloid nucleation score: inactive

Substance: GSGMGL
- amyloid nucleation score: inactive

Substance: GSGVRGQRMSGKCR
- amyloid nucleation score: 0.164 ± 0.42

Substance: GSGYVTGGSSLLRARWSRGG
- amyloid nucleation score: 1.26 ± 0.17

Substance: GSHELHWSVGYQESVLLRYH
- amyloid nucleation score: inactive

Substance: GSMLKAMELSDVVGSCIY
- amyloid nucleation score: inactive

Substance: GSNVNEVKNAQYTSRVGVCR
- amyloid nucleation score: inactive

Substance: GSNYSWSLLL
- amyloid nucleation score: inactive

Substance: GSRLAGLVVYDFSLSQWYFS
- amyloid nucleation score: 2.84 ± 0.079

Substance: GSSISRRDFNVAILFWWQGD
- amyloid nucleation score: inactive

Substance: GSSYGVIIVQYYP
- amyloid nucleation score: 2.02 ± 0.076

Substance: GSVSYISLSDNWVSGRKK
- amyloid nucleation score: inactive

Substance: GSWDI
- amyloid nucleation score: inactive

Substance: GTDWCTRHMPGIDPCDSVVC
- amyloid nucleation score: -0.557 ± 1

Substance: GTEVILSLVSESTGKRAARL
- amyloid nucleation score: inactive

Substance: GTGWVTSVFLCTVNWVDHRR
- amyloid nucleation score: 2.4 ± 0.084

Substance: GTKWSATITGWV
- amyloid nucleation score: inactive

Substance: GTNFALRHGMIILSRLWAYW
- amyloid nucleation score: inactive

Substance: GTPALCQ
- amyloid nucleation score: inactive

Substance: GTRNMKPLTKAETSRLG
- amyloid nucleation score: 0.139 ± 0.45

Substance: GTSMSRPDIVTDKVMPFLRR
- amyloid nucleation score: inactive

Substance: GVEIRYLQQ
- amyloid nucleation score: inactive

Substance: GVFFFNYLNS
- amyloid nucleation score: 0.63 ± 0.14

Substance: GVFMLVSNFASNWAT
- amyloid nucleation score: inactive

Substance: GVGLIE
- amyloid nucleation score: inactive

Substance: GVHIMRGGGIYVVGGLESWA
- amyloid nucleation score: inactive

Substance: GVKCPKKTNRQWGIVALMRP
- amyloid nucleation score: inactive

Substance: GVKVSDMSPDRDNLWFSRCS
- amyloid nucleation score: inactive

Substance: GVLCMWHLCFDVCDGKIIGG
- amyloid nucleation score: 1.74 ± 0.078

Substance: GVLQLNVIVTYFVMDMCSWL
- amyloid nucleation score: 1.78 ± 0.095

Substance: GVMYQACWSLASTYFTVNSS
- amyloid nucleation score: inactive

Substance: GVNDRGDENGVVGA
- amyloid nucleation score: inactive

Substance: GVSRGLSLPRSLKYRYCCAV
- amyloid nucleation score: inactive

Substance: GVSRLETGNFAASPMMHYKG
- amyloid nucleation score: inactive

Substance: GVVLSYNGTFWRVLINHHMC
- amyloid nucleation score: inactive

Substance: GVWVA
- amyloid nucleation score: -0.931 ± 1.9

Substance: GVYMLLDVPYGTASTSAMGS
- amyloid nucleation score: inactive

Substance: GVYSVSLLVLWMSMRASIAC
- amyloid nucleation score: inactive

Substance: GWAGGSLNARMSRWF
- amyloid nucleation score: 0.881 ± 0.17

Substance: GWPVSLN
- amyloid nucleation score: inactive

Substance: GWVFTMDFTSYLECTDMGRS
- amyloid nucleation score: inactive

Substance: GWVYDMVYYRSVKMGCAKRS
- amyloid nucleation score: 0.389 ± 0.22

Substance: GYDAGAWPRWRRSIWVHGYG
- amyloid nucleation score: inactive

Substance: GYGSAQCQFRWWYCFE
- amyloid nucleation score: -0.317 ± 0.65

Substance: GYICLGPPAVTVIYVRICRQ
- amyloid nucleation score: -0.495 ± 1

Substance: GYILVLYADRAKICDKFYVG
- amyloid nucleation score: 2.27 ± 0.05

Substance: GYLIIVIRLSAIDRHQ
- amyloid nucleation score: inactive

Substance: GYLRNMVWRMSQYIREVCPR
- amyloid nucleation score: inactive

Substance: GYRDLRGWNVNRKDSLVS
- amyloid nucleation score: inactive

Substance: GYSKNI
- amyloid nucleation score: inactive

Substance: GYVGLHTFSWEDLENRMDKH
- amyloid nucleation score: inactive

Substance: HAFYALDKKVPVTQLKFARQ
- amyloid nucleation score: -0.315 ± 0.84

Substance: HALGVSGRFDNNVVIFARGS
- amyloid nucleation score: inactive

Substance: HALSRDVVKMLCSFNNYLTW
- amyloid nucleation score: inactive

Substance: HANCANRLNYLYVLYRAS
- amyloid nucleation score: inactive

Substance: HCSYCVVSE
- amyloid nucleation score: inactive

Substance: HCVNRRKQYVRIRTYARLPC
- amyloid nucleation score: inactive

Substance: HDLAETCGSSPI
- amyloid nucleation score: inactive

Substance: HDVDLGWFSRYGIFRALRRE
- amyloid nucleation score: inactive

Substance: HDYDAIRRLSRMCDVVEYSR
- amyloid nucleation score: inactive

Substance: HEISSICTRFWANSLIRMSC
- amyloid nucleation score: inactive

Substance: HEYECGWIGVVFTMILMSLS
- amyloid nucleation score: inactive

Substance: HFAYRFCYLANRRRDVYRSA
- amyloid nucleation score: inactive

Substance: HFCPVRKGGAGIRYFYCSCW
- amyloid nucleation score: 1.7 ± 0.12

Substance: HFFLLMLSYSYYDCVFRYKC
- amyloid nucleation score: inactive

Substance: HFNRVLVPYAFSFIGKMEWF
- amyloid nucleation score: inactive

Substance: HGKKRNGRSPYINGFYLCYW
- amyloid nucleation score: inactive

Substance: HGRAYSRNT
- amyloid nucleation score: inactive

Substance: HGVNT
- amyloid nucleation score: inactive

Substance: HGVPYAIEASMLMFYLTFWR
- amyloid nucleation score: inactive

Substance: HHGWVVYNWVDKVINSHIVG
- amyloid nucleation score: 0.478 ± 0.28

Substance: HHHSATLYFTFMSVTE
- amyloid nucleation score: inactive

Substance: HHKITCLNRW
- amyloid nucleation score: inactive

Substance: HIFFFSPKSVVHVIASRGCL
- amyloid nucleation score: 1.59 ± 0.081

Substance: HISGYNDYMFDP
- amyloid nucleation score: inactive

Substance: HITLKSYARIV
- amyloid nucleation score: inactive

Substance: HITLRYLNL
- amyloid nucleation score: 0.692 ± 0.12

Substance: HIVSRP
- amyloid nucleation score: inactive

Substance: HKDMVNASLPGITSARWLGR
- amyloid nucleation score: inactive

Substance: HKEVMKNLCIFYPTDEMYRV
- amyloid nucleation score: inactive

Substance: HKFFAYDGGDRKRGIFGGWL
- amyloid nucleation score: 1.25 ± 0.1

Substance: HKLYEWACSRSTALNYIGQI
- amyloid nucleation score: inactive

Substance: HKMRRSLQFNEMGLFSPKVY
- amyloid nucleation score: inactive

Substance: HKRTTNIPFRFSNLC
- amyloid nucleation score: inactive

Substance: HKTLFIFS
- amyloid nucleation score: inactive

Substance: HKWSAAIEIGSVKDNRIKLL
- amyloid nucleation score: inactive

Substance: HKYLWCIPWETLCKTWPFFS
- amyloid nucleation score: inactive

Substance: HLCAVHKQFFYGSTGGVYTR
- amyloid nucleation score: inactive

Substance: HLCDFPLEVKTLFFLL
- amyloid nucleation score: 0.508 ± 0.17

Substance: HLCRFYSSFGDSTSSRLSGN
- amyloid nucleation score: inactive

Substance: HLGDGTA
- amyloid nucleation score: inactive

Substance: HLGFF
- amyloid nucleation score: inactive

Substance: HLGKRNEKNTVLARLNFGQ
- amyloid nucleation score: inactive

Substance: HLGVGG
- amyloid nucleation score: inactive

Substance: HLMFCNHMALCVFFLQQEF
- amyloid nucleation score: 2.21 ± 0.074

Substance: HLNGVALFNW
- amyloid nucleation score: 0.917 ± 0.11

Substance: HLRWMTEKGPVRNVCVRGCH
- amyloid nucleation score: inactive

Substance: HLTIVDWSPRESSSWIMRFT
- amyloid nucleation score: inactive

Substance: HLVCYLWE
- amyloid nucleation score: 1.71 ± 0.093

Substance: HMCCKYVPRNKSGSLVFKRG
- amyloid nucleation score: inactive

Substance: HMCIG
- amyloid nucleation score: inactive

Substance: HMNDASPGTAKFEIV
- amyloid nucleation score: inactive

Substance: HMPDFVCLFNHVMPWIWIRV
- amyloid nucleation score: inactive

Substance: HNASGCWWDSALPITFRRLG
- amyloid nucleation score: inactive

Substance: HNASKRMDICKASSVYKWRI
- amyloid nucleation score: inactive

Substance: HNNTIVASWRHDNRACA
- amyloid nucleation score: inactive

Substance: HNNYHYIVRSFVGI
- amyloid nucleation score: 1.01 ± 0.28

Substance: HNQTDSASVIWFSYVWAFVG
- amyloid nucleation score: inactive

Substance: HNRKYYTI
- amyloid nucleation score: inactive

Substance: HPGFTWY
- amyloid nucleation score: inactive

Substance: HPVGACCLQLRFGLYCICVA
- amyloid nucleation score: 0.023 ± 0.26

Substance: HQKALTAVMWFNNRRGGLFG
- amyloid nucleation score: inactive

Substance: HRDNLWRWNFFCPNY
- amyloid nucleation score: 0.993 ± 0.12

Substance: HRKKYFLSPIVGPRTPRLCT
- amyloid nucleation score: inactive

Substance: HRPRLGI
- amyloid nucleation score: inactive

Substance: HRRIPL
- amyloid nucleation score: inactive

Substance: HRTCITTNDDCLSRGTLP
- amyloid nucleation score: inactive

Substance: HRTLVMGP
- amyloid nucleation score: inactive
